Results: paper PMC4814140

Target: Arabidopsis thaliana aquaporin AtTIP2;1 (Arabidopsis thaliana) (UniProt Q41951)
Assay: crystal structure; AtTIP2;1 solubilised by n-octyl-β-D-glucoside, hanging drop vapor diffusion at room temperature, 50 mM magnesium/sodium acetate pH 5.0, 28% (v/v) PEG 400; space group I 4, 1.18 Å, partial twinning

Substance: Arabidopsis thaliana aquaporin AtTIP2;1 (from UniProt Q41951 2-250) (natural protein)
- stoichiometry N: 4
